Measured values taken from patent publication US20070264195A1 (H LUNDBECK A S, published 2007).

B4: recombinant human p75 neurotrophin receptor/Fc chimera (R&D Systems) (Fc fusion, UniProt P08138 29-250, looked up)
chain: KEACPTGLYTHSGECCKACNLGEGVAQPCGANQTVCEPCLDSVTFSDVVSATEPCKPCTECVGLQSMSAPCVEADDAVCRCAYGYYQDETTGRCEACRVCEAGSGLVFSCQDKQNTVCEECPDGTYSDEANHVDPCLPCTVCEDTERQLRECTRWADAECEEIPGRWITRSTPPEGSDSTAPSTQEPEAPPEQDLIASTVAGVVTTVMGSSQPVVTRGTTDN
notes: Bought reagent; also called p75-IgG-Fc chimeric protein; p75NTR; not shown: IgG Fc of the bought chimera

Legend:
[1] = molecular target: T1, purified human Sortilin extracellular domain (human, UniProt Q99523 78-755); assay: SPR (BIAcore), 5-500 nM proBDNF over Sortilin extracellular domain immobilized at 94 fmol/mm2
T1 construct: also called immobilized Sortilin; NTR-3
T1 sequence: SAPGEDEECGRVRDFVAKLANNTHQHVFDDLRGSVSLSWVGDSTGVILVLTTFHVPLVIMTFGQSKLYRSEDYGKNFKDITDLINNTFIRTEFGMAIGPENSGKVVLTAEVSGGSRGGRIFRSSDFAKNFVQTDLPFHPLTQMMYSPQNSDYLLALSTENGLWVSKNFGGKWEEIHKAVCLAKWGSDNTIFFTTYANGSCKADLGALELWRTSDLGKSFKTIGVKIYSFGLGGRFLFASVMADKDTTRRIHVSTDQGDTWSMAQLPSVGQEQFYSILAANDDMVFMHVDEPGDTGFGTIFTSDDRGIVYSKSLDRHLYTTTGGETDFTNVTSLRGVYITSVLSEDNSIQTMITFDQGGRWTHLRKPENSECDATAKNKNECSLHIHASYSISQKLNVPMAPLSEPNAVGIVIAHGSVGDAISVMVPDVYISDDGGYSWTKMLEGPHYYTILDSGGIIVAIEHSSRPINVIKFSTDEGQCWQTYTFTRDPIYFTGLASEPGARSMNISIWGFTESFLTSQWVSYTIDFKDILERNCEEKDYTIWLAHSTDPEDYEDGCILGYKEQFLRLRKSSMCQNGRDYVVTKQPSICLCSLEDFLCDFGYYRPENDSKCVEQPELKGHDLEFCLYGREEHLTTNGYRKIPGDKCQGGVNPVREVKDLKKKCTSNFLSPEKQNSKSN
Description: (§1) FIG. 7: Characterization of proBDNF and BDNF binding to purified Sortilin as measured by surface plasmon resonance (BIAcore). Rat proBDNF was produced in 293 cells as described in Lee, R., Kermani, P., Teng, K. K. & Hempstead, B. L. Regulation of cell survival by secreted proneurotrophins. Science 294, 1945-1948 (2001). and purified from the conditioned medium. Mature recombinant human BDNF was from Promega (#G1491) and the pro-domain of human BDNF fused to GST (glutathione S-transferase) was produced in E. coli and purified by glutathione-sepharose affinity chromatography. Binding of 5-500 nM proBDNF (upper panel), pro-domain of proBDNF (a GST-fusion protein, middle panel) or BDNF (lower panel) was measured to 94 fmol/mm2 immobilized purified Sortilin extracellular domain. The experiment was carried out essentially as described for FIGS. 2-4.

[2] = molecular target: T1, purified human Sortilin extracellular …; assay: SPR (BIAcore), 5-500 nM GST-pro-domain over Sortilin extracellular domain immobilized at 94 fmol/mm2
Description: as §1

[3] = molecular target: T1, purified human Sortilin extracellular …; assay: SPR (BIAcore), other preparations of mature BDNF over immobilized Sortilin; other preparations of mature BDNF
[4] = molecular target: T1, purified human Sortilin extracellular …; assay: SPR (BIAcore), 5-500 nM BDNF over Sortilin extracellular domain immobilized at 94 fmol/mm2; Promega #G1491 preparation
Description: as §1

[5] = molecular target: T2, Human recombinant proNGF (produced in E. coli) (human, UniProt P01138 19-241); assay: SPR (BIAcore), 25-500 nM proNGF over p75-IgG-Fc immobilized at 91.5 fmol/mm2
T2 construct: The end 241 is the end of the entry as printed
Method: (§2) FIG. 3: Characterization of proNGF binding to p75, TrkA, and Sortilin as measured by surface plasmon resonance analysis (BIAcore). Binding of 25-500 nM proNGF was measured to 91.5 fmol/mm² immobilized p75-IgG-Fc chimeric protein (upper panel), to 66 fmol/mm² immobilized TrkA-IgG-Fc (middle panel), and to 51 fmol/mm² purified Sortilin extracellular domain (lower panel).

[6] = molecular target: T3, recombinant human TrkA/Fc chimera (R&D Systems) (human, UniProt P04629-2 34-407); assay: SPR (BIAcore), TrkA-IgG-Fc immobilized at 66 fmol/mm2
T3 construct: Bought reagent; also called TrkA-IgG-Fc; not shown: IgG Fc of the bought chimera
Method: (§3) FIG. 4: Characterization of binding of the proNGF propeptide to p75, TrkA, and Sortilin as measured by surface plasmon resonance analysis (BIAcore). Binding of 25-500 nM propeptide was measured to 91.5 fmol/mm² immobilized p75-IgG-Fc chimeric protein (upper panel), to 66 fmol/mm² immobilized TrkA-IgG-Fc (middle panel), and to 51 fmol/mm² purified Sortilin extracellular domain (lower panel). […] There was no detectable binding to p75 and TrkA.

[7] = molecular target: B4; assay: SPR (BIAcore), p75-IgG-Fc immobilized at 91.5 fmol/mm2
Method: as §3

[8] = molecular target: T1, purified human Sortilin extracellular …; assay: SPR (BIAcore), 25-500 nM propeptide over Sortilin extracellular domain immobilized at 51 fmol/mm2
Method: as §3

[9] = molecular target: T3, recombinant human TrkA/Fc chimera (R&D …); assay: SPR (BIAcore), 50-500 nM NGF over TrkA-IgG-Fc immobilized at 66 fmol/mm2
Method: as §2, with “2:” for “3:”, “NGF” for “proNGF”, “50-500” for “25-500”

[10] = molecular target: T1, purified human Sortilin extracellular …; assay: SPR (BIAcore), 50-500 nM NGF over Sortilin extracellular domain immobilized at 51 fmol/mm2
Method: as §2, with “2:” for “3:”, “NGF” for “proNGF”, “50-500” for “25-500”

[11] = molecular target: B4; assay: SPR (BIAcore), 50-500 nM NGF over p75-IgG-Fc immobilized at 91.5 fmol/mm2
Method: as §2, with “2:” for “3:”, “NGF” for “proNGF”, “50-500” for “25-500”

T3 sequence (P04629 other isoform, or with tags, fused parts or gaps mutant): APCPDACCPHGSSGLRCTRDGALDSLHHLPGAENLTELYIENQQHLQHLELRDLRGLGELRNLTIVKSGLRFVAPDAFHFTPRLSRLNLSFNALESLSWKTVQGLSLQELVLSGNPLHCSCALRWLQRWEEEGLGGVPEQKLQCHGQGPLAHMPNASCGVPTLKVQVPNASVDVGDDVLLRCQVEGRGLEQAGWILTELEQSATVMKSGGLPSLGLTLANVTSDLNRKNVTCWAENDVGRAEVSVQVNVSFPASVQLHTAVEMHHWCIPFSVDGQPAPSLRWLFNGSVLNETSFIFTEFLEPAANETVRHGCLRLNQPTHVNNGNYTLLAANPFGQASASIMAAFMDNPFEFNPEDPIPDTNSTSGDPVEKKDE

B1: Rat proBDNF (produced in 293 cells, purified from conditioned medium) (ligand, UniProt P23363 19-249, looked up)
chain: APMKEANVHGQGNLAYPAVRTHGTLESVNGPRAGSRGLTTTSLADTFEHVIEELLDEDQKVRPNEENHKDADLYTSRVMLSSQVPLEPPLLFLLEEYKNYLDAANMSMRVRRHSDPARRGELSVCDSISEWVTAADKKTAVDMSGGTVTVLEKVPVSKGQLKQYFYETKCNPMGYTKEGCRGIDKRHWNSQCRTTQSYVRALTMDSKKRIGWRFIRIDTSCVCTLTIKRGR
notes: Pro-form of BDNF
Kd [1]: ~3 nM

B2: pro-domain of human BDNF fused to GST (glutathione S-transferase), produced in E. coli (other)
chain: APMKEANIRGQGGLAYPGVRTHGTLESVNGPKAGSGLTSLADTFEHVIEELLDEDQKVRPNEENNKDADLYTSRVMLSSQVPLEPPLLFLLEEYKNYLDAANMSMRVRR
notes: The residues 19-127 come from the description of the propart for BDNF; also called GST-pro-domain of proBDNF; pro-domain of proBDNF (a GST-fusion protein); not shown: glutathione S-transferase (GST) fusion partner
Kd [2]: ~58 nM

B3: Mature recombinant human BDNF (Promega #G1491) (ligand)
chain: HSDPARRGELSVCDSISEWVTAADKKTAVDMSGGTVTVLEKVPVSKGQLKQYFYETKCNPMGYTKEGCRGIDKRHWNSQCRTTQSYVRALTMDSKKRIGWRFIRIDTSCVCTLTIKRGR
notes: also called mature BDNF
Kd [3]: 10 nM | Kd [4]: ~40 nM

B4
Kd [5]: ~12 nM

B5: human NGF-propeptide expressed in E. coli (peptide)
chain: EPHSESNVPAGHTIPQVHWTKLQHSLDTALRRARSAPAAAIAARVAGQTRNITVDPRLFKKRRLRSPRVLFSTQPPREAADTQDLDFEVGGAAPFNRTHRSKR
notes: The residues 19-121 come from the description of the propart for NGF; also called proNGF propeptide; propeptide of proNGF
binding result [6]: no binding (tested: 25-500 nM propeptide) | binding result [7]: no binding (tested: 25-500 nM propeptide) | Kd [8]: ~87 nM

B6: Mature murine NGF (Austral Biologicals) (ligand, UniProt P01139 122-241, looked up)
chain: SSTHPVFHMGEFSVCDSVSVWVGDKTTATDIKGKEVTVLAEVNINNSVFRQYFFETKCRASNPVESGCRGIDSKHWNSYCTTTHTFVKALTTDEKQAAWRFIRIDTACVCVLSRKATRRG
notes: mature; also called nerve growth factor
Kd [9]: ~2 nM | Kd [10]: ~87 nM | Kd [11]: ~1 nM
